Laboratory results as given in US20230414735A1, “NEOANTIGENS AND METHODS OF THEIR USE” (priority 2016, published 2023).

Tests used:
HLA-B08:01 (human) [1] = assay: competition with 125I probe peptide for purified HLA class I; details: remark: other sources report otherwise
HLA-B08:01 (human) [2] = assay: pMHC-I dissociation, 125I-b2m; details: remark: other sources report otherwise
HLA-B08:01 (human) [3] = assay: competition with 125I probe peptide on purified HLA

Binder | IC50 (HLA-B08:01 (human) [1]) | Stability (T1/2 (h)) (HLA-B08:01 (human) [2]) | IC50 (HLA-B08:01 (human) [3])
CMGSMNRRPI | 80 nM |  | 
LPRKPTRAA |  | 0 h | 
MALNSEALSV |  | 0 h | 
GMNWRPILTI |  | 0 h | 
MNWRPILTI | 1 nM | 0 h | 
NQRPILTII | 20 nM |  | 
SLRRKYLRV |  |  | 0.4 nM
